Assay results published in PMC2749821.

Experiments:
[1] = target: T1, bone morphogenetic protein 7 (BMP7), human (human), P18075; assay: SPR; Biacore 2000; receptor ectodomains as analyte over biotinylated ligands on streptavidin-coated CM5 chips; HBS500, 25°C, 10 μl/min; apparent affinities, 1:1 interaction; settings: remark: other sources report otherwise
T1 chain: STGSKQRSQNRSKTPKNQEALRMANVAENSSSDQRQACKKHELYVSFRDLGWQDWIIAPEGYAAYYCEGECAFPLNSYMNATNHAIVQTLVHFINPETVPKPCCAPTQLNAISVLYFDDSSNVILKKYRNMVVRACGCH

activin A, human (human) = activin A, human (human) (UniProt P08476); assay: as above
[2] = target: preformed complex of BMP2 with immobilized BMPR-IA ectodomain (human) (UniProt P12643); assay: SPR; ternary complexes by coinjection: 100 nM ligand perfused 2 min over the immobilized type I receptor ectodomain, then 100 nM ligand plus 0 to 64 μM soluble type II receptor ectodomain; HBS500, 25°C; equilibrium dose response
[3] = target: preformed complex of GDF5 with an immobilized type I receptor ectodomain (BMPR-IA or BMPR-IB) (UniProt P43026); assay: as above
[4] = target: preformed complex of BMP7 with immobilized BMPR-IB ectodomain (human | mouse) (UniProt P18075); assay: as above
[5] = target: T2, activin receptor type I (ActR-I) ectodomain, human (human), Q04771; assay: SPR; Biacore 2000; ligands as analyte over biotinylated receptor ectodomains (about 200 RU) on streptavidin-coated CM5 chips; HBS500 (10 mM HEPES pH 7.4, 500 mM NaCl, 3.4 mM EDTA, 0.005% P20), 25°C, 10 μl/min; apparent affinities, 1:2 interaction with avidity; settings: remark: other sources report otherwise
T2 chain: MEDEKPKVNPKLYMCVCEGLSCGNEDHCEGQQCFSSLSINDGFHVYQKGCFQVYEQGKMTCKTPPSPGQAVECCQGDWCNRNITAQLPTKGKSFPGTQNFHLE

B1: activin receptor type I (ActR-I) ectodomain, human, Q04771 21-123 (receptor)
chain: MEDEKPKVNPKLYMCVCEGLSCGNEDHCEGQQCFSSLSINDGFHVYQKGCFQVYEQGKMTCKTPPSPGQAVECCQGDWCNRNITAQLPTKGKSFPGTQNFHLE
modifications: here or on the partner: N-biotinylated (sulfo-NHS-LC-biotin) where immobilised; biotin (sulfo-NHS-LC-biotin) where immobilised
Kd [1]: 58 µM

B2: BMP receptor II (BMPR-II) ectodomain, human (receptor)
chain: RLCAFKDPYQQDLGIGESRISHENGTILCSKGSTCYGLWEKSKGDINLVKQGCWSHIGDPQECHYEECVVTTTPPSIQNGTYRFCCCSTDLCNVNFTENFPPPDTTPLSPPHSFNRDET
modifications: N-biotinylated (sulfo-NHS-LC-biotin) where immobilised
Kd (activin A, human (human)): 0.89 µM | koff (activin A, human (human)): 0.076 s⁻¹ | kon (activin A, human (human)): 100000 M⁻¹ s⁻¹ | Kd [2]: 22 µM | Kd [3]: 32 µM | Kd [4]: 16 µM

B3: bone morphogenetic protein 7 (BMP7), human, P18075 293-431 (ligand)
chain: STGSKQRSQNRSKTPKNQEALRMANVAENSSSDQRQACKKHELYVSFRDLGWQDWIIAPEGYAAYYCEGECAFPLNSYMNATNHAIVQTLVHFINPETVPKPCCAPTQLNAISVLYFDDSSNVILKKYRNMVVRACGCH
modifications: here or on the partner: biotin (sulfo-NHS-LC-biotin) where immobilised; N-biotinylated (sulfo-NHS-LC-biotin) where immobilised
KD (eq) [5]: > 0.5 µM | Kd [5]: > 0.5 µM
